T1: SHANK1, Q9Y566
T1 sequence (Q9Y566 658-767, limits assumed, looked up): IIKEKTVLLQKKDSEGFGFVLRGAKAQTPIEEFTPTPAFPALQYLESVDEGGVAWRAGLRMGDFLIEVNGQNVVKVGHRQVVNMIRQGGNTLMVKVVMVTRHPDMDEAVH

T2: TJP3_3, O95049
T2 sequence (O95049 375-456, limits assumed, looked up): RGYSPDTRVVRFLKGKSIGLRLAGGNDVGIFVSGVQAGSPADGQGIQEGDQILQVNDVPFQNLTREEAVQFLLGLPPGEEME

T3: GRIP1_5, Q9Y3R0
T3 sequence (Q9Y3R0 568-668, limits assumed, looked up): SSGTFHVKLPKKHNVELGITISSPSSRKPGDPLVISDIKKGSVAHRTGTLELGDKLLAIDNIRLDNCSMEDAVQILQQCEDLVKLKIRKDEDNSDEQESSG

T4: GRIP1_2, Q9Y3R0
T4 sequence (Q9Y3R0 145-248, limits assumed, looked up): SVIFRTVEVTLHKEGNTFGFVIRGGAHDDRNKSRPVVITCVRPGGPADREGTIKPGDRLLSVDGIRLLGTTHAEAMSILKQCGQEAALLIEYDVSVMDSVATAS

T5: APBA1_1, Q02410
T5 sequence (Q02410 651-752, limits assumed, looked up): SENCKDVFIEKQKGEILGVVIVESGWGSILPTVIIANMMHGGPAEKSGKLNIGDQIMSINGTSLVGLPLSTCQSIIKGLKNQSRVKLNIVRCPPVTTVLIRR

T6: APBA2_1, Q99767
T6 sequence (Q99767 563-664, limits assumed, looked up): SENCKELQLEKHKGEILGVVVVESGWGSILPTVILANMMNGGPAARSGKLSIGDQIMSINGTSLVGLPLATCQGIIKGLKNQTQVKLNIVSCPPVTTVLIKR

T7: NHERF3_1, Q5T2W1
T7 sequence (Q5T2W1 4-100, limits assumed, looked up): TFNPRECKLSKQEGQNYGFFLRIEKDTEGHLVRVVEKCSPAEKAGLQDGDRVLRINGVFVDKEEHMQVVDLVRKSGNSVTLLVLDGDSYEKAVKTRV

T8: APBA3_1, O96018
T8 sequence (O96018 389-490, limits assumed, looked up): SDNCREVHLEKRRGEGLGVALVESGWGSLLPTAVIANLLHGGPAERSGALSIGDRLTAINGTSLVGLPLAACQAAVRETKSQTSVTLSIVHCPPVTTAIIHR

T9: SNTB1, Q13884
T9 sequence (Q13884 107-205, limits assumed, looked up): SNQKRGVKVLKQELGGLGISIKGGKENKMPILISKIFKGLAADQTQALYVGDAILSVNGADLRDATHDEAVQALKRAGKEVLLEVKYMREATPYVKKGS

T10: SNTG1, Q9NSN8
T10 sequence (Q9NSN8 52-150, limits assumed, looked up): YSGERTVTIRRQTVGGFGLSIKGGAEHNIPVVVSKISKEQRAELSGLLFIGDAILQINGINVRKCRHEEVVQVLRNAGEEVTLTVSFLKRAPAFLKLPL

T11: MPDZ_5, O75970
T11 sequence (O75970 695-796, limits assumed, looked up): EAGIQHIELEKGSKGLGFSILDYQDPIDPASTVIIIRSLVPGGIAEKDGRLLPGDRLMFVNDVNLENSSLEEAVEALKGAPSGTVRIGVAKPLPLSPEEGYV

T12: SNTG2, Q9NY99
T12 sequence (Q9NY99 68-166, limits assumed, looked up): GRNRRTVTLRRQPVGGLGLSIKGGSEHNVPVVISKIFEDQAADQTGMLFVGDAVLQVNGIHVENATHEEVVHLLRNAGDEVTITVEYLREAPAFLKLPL


target: Inadl_8, Q8NI35; test: holdup assay; set-up: key: below the threshold = too weak to quantify, mostly under pKd 3.1 to 4; details: plain residues with an end cap or a label only (N-terminal biotin on a linker: ado-ado)
Sequence (Q8NI35 1425-1530): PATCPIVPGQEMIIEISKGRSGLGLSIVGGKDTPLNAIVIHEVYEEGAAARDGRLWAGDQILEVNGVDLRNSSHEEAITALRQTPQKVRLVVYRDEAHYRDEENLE

Row | Binder | pKd
1 | RRLQGTSSMV [GOLT1A, Q6ZVE7] | 4.08
2 | RDFDYIADWC [PKN2, Q16513] | 4.55

target: DLG2_3, Q15700; test: holdup assay; set-up: key: below the threshold = too weak to quantify, mostly under pKd 3.1 to 4; details: plain residues with an end cap or a label only (N-terminal biotin on a linker: ado-ado)

Row | Binder | pKd
3 | RRLQGTSSMV [GOLT1A, Q6ZVE7] | 4.06
4 | RDFDYIADWC [PKN2, Q16513] | 3.77

target: GRIP2_7, Q9C0E4; test: holdup assay; set-up: key: below the threshold = too weak to quantify, mostly under pKd 3.1 to 4; details: plain residues with an end cap or a label only (N-terminal biotin on a linker: ado-ado)
Sequence (Q9C0E4 934-1023): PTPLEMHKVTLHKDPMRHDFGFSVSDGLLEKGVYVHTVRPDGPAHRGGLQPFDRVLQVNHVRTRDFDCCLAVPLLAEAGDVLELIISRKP

Row | Binder | pKd
5 | RRLQGTSSMV [GOLT1A, Q6ZVE7] | below the threshold
6 | RDFDYIADWC [PKN2, Q16513] | below the threshold

target: T1, SHANK1, Q9Y566; test: holdup assay; set-up: key: below the threshold = too weak to quantify, mostly under pKd 3.1 to 4; details: plain residues with an end cap or a label only (N-terminal biotin on a linker: ado-ado)

Row | Binder | pKd
7 | RRLQGTSSMV [GOLT1A, Q6ZVE7] | below the threshold
8 | RDFDYIADWC [PKN2, Q16513] | below the threshold

target: T2, TJP3_3, O95049; test: holdup assay; set-up: key: below the threshold = too weak to quantify, mostly under pKd 3.1 to 4; details: plain residues with an end cap or a label only (N-terminal biotin on a linker: ado-ado)

Row | Binder | pKd
9 | RRLQGTSSMV [GOLT1A, Q6ZVE7] | below the threshold
10 | RDFDYIADWC [PKN2, Q16513] | 4.57

target: T3, GRIP1_5, Q9Y3R0; test: holdup assay; set-up: key: below the threshold = too weak to quantify, mostly under pKd 3.1 to 4; details: plain residues with an end cap or a label only (N-terminal biotin on a linker: ado-ado)

Row | Binder | pKd
11 | RRLQGTSSMV [GOLT1A, Q6ZVE7] | below the threshold
12 | RDFDYIADWC [PKN2, Q16513] | below the threshold

target: PARD3_3, Q8TEW0; test: holdup assay; set-up: key: below the threshold = too weak to quantify, mostly under pKd 3.1 to 4; details: plain residues with an end cap or a label only (N-terminal biotin on a linker: ado-ado)
Sequence (Q8TEW0 582-685): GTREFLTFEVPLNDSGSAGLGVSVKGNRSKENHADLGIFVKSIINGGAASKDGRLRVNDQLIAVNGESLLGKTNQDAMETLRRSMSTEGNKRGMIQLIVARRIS

Row | Binder | pKd
13 | RRLQGTSSMV [GOLT1A, Q6ZVE7] | below the threshold
14 | RDFDYIADWC [PKN2, Q16513] | 3.76

target: T4, GRIP1_2, Q9Y3R0; test: holdup assay; set-up: key: below the threshold = too weak to quantify, mostly under pKd 3.1 to 4; details: plain residues with an end cap or a label only (N-terminal biotin on a linker: ado-ado)

Row | Binder | pKd
15 | RRLQGTSSMV [GOLT1A, Q6ZVE7] | below the threshold
16 | RDFDYIADWC [PKN2, Q16513] | 3.7

target: MAGI1_1, Q96QZ7; test: holdup assay; set-up: key: below the threshold = too weak to quantify, mostly under pKd 3.1 to 4; details: plain residues with an end cap or a label only (N-terminal biotin on a linker: ado-ado)
Sequence (Q96QZ7 1-106): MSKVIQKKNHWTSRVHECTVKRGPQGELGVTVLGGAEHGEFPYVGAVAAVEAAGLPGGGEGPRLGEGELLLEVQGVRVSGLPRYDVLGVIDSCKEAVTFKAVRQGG

Row | Binder | pKd
17 | RRLQGTSSMV [GOLT1A, Q6ZVE7] | below the threshold
18 | RDFDYIADWC [PKN2, Q16513] | below the threshold

target: T5, APBA1_1, Q02410; test: holdup assay; set-up: key: below the threshold = too weak to quantify, mostly under pKd 3.1 to 4; details: plain residues with an end cap or a label only (N-terminal biotin on a linker: ado-ado)

Row | Binder | pKd
19 | RRLQGTSSMV [GOLT1A, Q6ZVE7] | below the threshold
20 | RDFDYIADWC [PKN2, Q16513] | 3.67

target: GRID2IP_2, A4D2P6; test: holdup assay; set-up: key: below the threshold = too weak to quantify, mostly under pKd 3.1 to 4; details: plain residues with an end cap or a label only (N-terminal biotin on a linker: ado-ado)
Sequence (A4D2P6 272-370): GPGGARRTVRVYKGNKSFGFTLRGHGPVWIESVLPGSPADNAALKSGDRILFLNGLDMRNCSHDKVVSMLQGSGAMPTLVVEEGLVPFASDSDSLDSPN

Row | Binder | pKd
21 | RRLQGTSSMV [GOLT1A, Q6ZVE7] | 3.93
22 | RDFDYIADWC [PKN2, Q16513] | below the threshold

target: T6, APBA2_1, Q99767; test: holdup assay; set-up: key: below the threshold = too weak to quantify, mostly under pKd 3.1 to 4; details: plain residues with an end cap or a label only (N-terminal biotin on a linker: ado-ado)

Row | Binder | pKd
23 | RRLQGTSSMV [GOLT1A, Q6ZVE7] | below the threshold
24 | RDFDYIADWC [PKN2, Q16513] | below the threshold

target: DLG1_3, Q12959; test: holdup assay; set-up: key: below the threshold = too weak to quantify, mostly under pKd 3.1 to 4; details: plain residues with an end cap or a label only (N-terminal biotin on a linker: ado-ado)
Sequence (Q12959 457-571): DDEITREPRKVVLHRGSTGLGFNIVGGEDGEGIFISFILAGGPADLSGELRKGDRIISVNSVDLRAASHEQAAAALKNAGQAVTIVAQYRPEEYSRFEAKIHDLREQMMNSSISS

Row | Binder | pKd
25 | RRLQGTSSMV [GOLT1A, Q6ZVE7] | 3.58
26 | RDFDYIADWC [PKN2, Q16513] | below the threshold

target: Inadl_9, Q8NI35; test: holdup assay; set-up: key: below the threshold = too weak to quantify, mostly under pKd 3.1 to 4; details: plain residues with an end cap or a label only (N-terminal biotin on a linker: ado-ado)
Sequence (Q8NI35 1530-1615): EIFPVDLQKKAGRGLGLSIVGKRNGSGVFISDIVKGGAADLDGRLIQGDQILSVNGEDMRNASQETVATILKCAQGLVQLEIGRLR

Row | Binder | pKd
27 | RRLQGTSSMV [GOLT1A, Q6ZVE7] | below the threshold
28 | RDFDYIADWC [PKN2, Q16513] | 4.34

target: T7, NHERF3_1, Q5T2W1; test: holdup assay; set-up: key: below the threshold = too weak to quantify, mostly under pKd 3.1 to 4; details: plain residues with an end cap or a label only (N-terminal biotin on a linker: ado-ado)

Row | Binder | pKd
29 | RRLQGTSSMV [GOLT1A, Q6ZVE7] | 4.09
30 | RDFDYIADWC [PKN2, Q16513] | 4.27

target: GORASP1, Q9BQQ3; test: holdup assay; set-up: key: below the threshold = too weak to quantify, mostly under pKd 3.1 to 4; details: plain residues with an end cap or a label only (N-terminal biotin on a linker: ado-ado)
Sequence (Q9BQQ3 1-208): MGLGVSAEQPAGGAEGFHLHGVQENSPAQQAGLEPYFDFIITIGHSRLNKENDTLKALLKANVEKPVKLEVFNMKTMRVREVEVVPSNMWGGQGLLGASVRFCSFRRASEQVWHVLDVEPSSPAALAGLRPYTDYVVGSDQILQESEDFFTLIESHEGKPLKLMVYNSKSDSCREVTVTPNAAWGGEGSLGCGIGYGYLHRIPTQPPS

Row | Binder | pKd
31 | RRLQGTSSMV [GOLT1A, Q6ZVE7] | 3.67
32 | RDFDYIADWC [PKN2, Q16513] | below the threshold

target: T8, APBA3_1, O96018; test: holdup assay; set-up: key: below the threshold = too weak to quantify, mostly under pKd 3.1 to 4; details: plain residues with an end cap or a label only (N-terminal biotin on a linker: ado-ado)

Row | Binder | pKd
33 | RRLQGTSSMV [GOLT1A, Q6ZVE7] | below the threshold
34 | RDFDYIADWC [PKN2, Q16513] | below the threshold

target: T9, SNTB1, Q13884; test: holdup assay; set-up: key: below the threshold = too weak to quantify, mostly under pKd 3.1 to 4; details: plain residues with an end cap or a label only (N-terminal biotin on a linker: ado-ado)

Row | Binder | pKd
35 | RRLQGTSSMV [GOLT1A, Q6ZVE7] | below the threshold
36 | RDFDYIADWC [PKN2, Q16513] | below the threshold

target: T10, SNTG1, Q9NSN8; test: holdup assay; set-up: key: below the threshold = too weak to quantify, mostly under pKd 3.1 to 4; details: plain residues with an end cap or a label only (N-terminal biotin on a linker: ado-ado)

Row | Binder | pKd
37 | RRLQGTSSMV [GOLT1A, Q6ZVE7] | 3.7
38 | RDFDYIADWC [PKN2, Q16513] | below the threshold

target: T11, MPDZ_5, O75970; test: holdup assay; set-up: key: below the threshold = too weak to quantify, mostly under pKd 3.1 to 4; details: plain residues with an end cap or a label only (N-terminal biotin on a linker: ado-ado)

Row | Binder | pKd
39 | RRLQGTSSMV [GOLT1A, Q6ZVE7] | below the threshold
40 | RDFDYIADWC [PKN2, Q16513] | below the threshold

target: T12, SNTG2, Q9NY99; test: holdup assay; set-up: key: below the threshold = too weak to quantify, mostly under pKd 3.1 to 4; details: plain residues with an end cap or a label only (N-terminal biotin on a linker: ado-ado)

Row | Binder | pKd
41 | RRLQGTSSMV [GOLT1A, Q6ZVE7] | below the threshold
42 | RDFDYIADWC [PKN2, Q16513] | below the threshold

target: GRIP2_6, Q9C0E4; test: holdup assay; set-up: key: below the threshold = too weak to quantify, mostly under pKd 3.1 to 4; details: plain residues with an end cap or a label only (N-terminal biotin on a linker: ado-ado)
Sequence (Q9C0E4 648-740): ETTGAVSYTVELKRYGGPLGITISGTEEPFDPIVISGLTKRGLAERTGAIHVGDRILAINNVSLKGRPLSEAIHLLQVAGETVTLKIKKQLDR

Row | Binder | pKd
43 | RRLQGTSSMV [GOLT1A, Q6ZVE7] | below the threshold
44 | RDFDYIADWC [PKN2, Q16513] | below the threshold

target: GOPC, Q9HD26; test: holdup assay; set-up: key: below the threshold = too weak to quantify, mostly under pKd 3.1 to 4; details: plain residues with an end cap or a label only (N-terminal biotin on a linker: ado-ado)

Row | Binder | pKd
45 | RRLQGTSSMV [GOLT1A, Q6ZVE7] | below the threshold
46 | RDFDYIADWC [PKN2, Q16513] | below the threshold

target: AHNAK1, Q09666; test: holdup assay; set-up: key: below the threshold = too weak to quantify, mostly under pKd 3.1 to 4; details: plain residues with an end cap or a label only (N-terminal biotin on a linker: ado-ado)
Sequence (Q09666 4-100): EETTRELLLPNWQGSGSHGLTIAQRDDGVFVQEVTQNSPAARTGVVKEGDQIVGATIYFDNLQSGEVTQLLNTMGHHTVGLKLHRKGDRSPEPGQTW

Row | Binder | pKd
47 | RRLQGTSSMV [GOLT1A, Q6ZVE7] | below the threshold
48 | RDFDYIADWC [PKN2, Q16513] | below the threshold

Source: publication PMC9482650, “Quantitative fragmentomics allow affinity mapping of interactomes” (Nature Communications, 2022)
